Measured values from the supplement of paper PMC11780869.

System: Bacillus subtilis
Assay: cleaved RNA product abundance (RNA/gDNA barcode ratio) relative to median wild-type variant (ratio to wild type); higher = more accumulation of the downstream cleavage product
In short: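 In LB at 37°C, B. subtilis cultures went from OD600 0.0003 to 0.3. Their chromosomes held barcoded reporter mRNAs, truncated aprE or tetM, with RNase Y cleavage-site windows mutagenized via oligos at a 9% error rate. Cleaved RNA, chosen by gel, was reverse transcribed and barcode-sequenced alongside genomic DNA barcodes with UMI collapsing, giving a per-construct RNA:gDNA ratio scaled to the median construct with the unmutated site. This scaled ratio is termed cleaved product abundance.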

[1] = experiment (reporter, strain, medium): exp 8a: truncated aprE reporter, strain BJT201 with 2% xylose (RNase J1 expressed), cleavage site: glnRA (positions -5 to +31 mutated)
[2] = experiment (reporter, strain, medium): exp 4a: truncated aprE reporter, strain BJT201 with 2% xylose (RNase J1 expressed), cleavage site: cggR-gapA (positions -7 to +36 mutated)
[3] = experiment (reporter, strain, medium): exp 2b: truncated aprE reporter, strain BJT200, cleavage site: cggR-gapA (positions -7 to +36 mutated)

Sequence	cleaved RNA product abundance [1]	cleaved RNA product abundance [2]	cleaved RNA product abundance [3]	also measured
CGACATGTCCCGCTTCTTTCATTAATCCGATAGCAACTGTTTTGCTATTTACATTTACCTTTTAAGAGGAGGAAT	0.189			
ACAGACGAAGGAGCCGCAAAGAAGTTATTAAGGGATTTATAATCCCTCAATATAAATATCTCTCACTTATTTAAA		0.931		
ACAGACGAAGGAGCCGCAAAGAAGTTTTTAAGGGATGTATAATCCCTCAATATAAATATCTCTCACTTATTTAAA		0.331	0.285	
CGACATGTCCCGCTTCTTTCATTAATTCGTTAGCAACTGTTTTGCTATATACATATACCTTTTAAGAGGAGGAAT	0.859			
CGACATGTCCCGCTTCTTTCATTAATCCTTGAGCAACTGTTTTGCTATATACATTTACCTTTTAAGAGGAGGAAT	0.57			
ACAGACGAAGGAGCCGCAAAGAAGTTATTAAGGGATGAATAATCCATCAATGTAAATATCTCTCACTTATTTAAA		0.0513	0.0896	
ACAGACGAAGGAGCCGCAAATAAGTTATAAAAGGATGAATAATCCCTCAATATAAATATCTCTCACTTATTTAAA		0.211		
CGACATGTCCCGCTTCTTTCATTAATCCATTAGCAACTGTTATGCTATATACATTTACCTTTTAAGAGGAGGAAT	0.555			
ACAGACGAAGGAGCCGCAAAGAAGATATTAAGGGATGAATAATACCTCAATATAAATATCTCTCACTTATTTAAA		0.237	0.162	
ACAGACGAAGGAGCCGCAAAGAAGTTATTCAGGGATGAATAATACCTCAATATAAATATCTCTCACTTATTTAAA		0.134		
CGACATGTCCCGCTTCTTTCATTAATCTGTTAGCAACTGTTTTGCTATAGACATTTACCTTTTAAGAGGAGGAAT	0.968			
ACAGACGAAGGAGCCGCAAAGAAATTATTAAGGGATGTATAATCCCTCAATATAAATATCTCTCACTTATTTAAA		0.789	0.711	
ACAGACGAAGGAGCCGCGAAGAAGTTATTAAGGGATAAATAATCCCTCAATATAAATATCTCTCACTTATTTAAA		0.679		
CGACATGTCCCGCTTCTTTCATTAATCAGTTAGCAACTGTTTTGCTATATACATTTACCTTTTAAGAGGAGGAAT	0.763			
ACAGACGAAGGAGCCGCAAAGAAGTTATTAAGGGATCAATGATCCCTCAATATAAATATCTCTCACTTATTTAAA		1.15		
CGACATGTCCCGCTTCTTTCATTAATCCGTTAGCAACTGTTTTGTTATATACATTGACCTTTTAAGAGGAGGAAT	2.01			
ACAGACGAAGGAGCCGCAAAGCAGTTATTAAGGGATGAATAATCCTTCAATATAAATATCTCTCACTTATTTAAA		0.526		
ACAGACGAAGGAGCCGCAAAGAAGTTATTTAAGGATGAATAATCCCTCAATATAAATATCTCTCACTTATTTAAA		0.182	0.125	
ACAGACGAAGGAGCCGCAAAGAAGTTATTAAGAGATGAATATTCCCTCAATATAAATATCTCTCACTTATTTAAA		0.0954		
ACAGACGAAGGAGCCGCGAAGAAGTTATTTAGGGATGAATAATCCCTCAATATAAATATCTCTCACTTATTTAAA			0.572	
ACAGACGAAGGAGCCGCAAAGAAGTTATTAAGGGATTAATAATCCCTCACTATAAATATCTCTCACTTATTTAAA		0.26	0.233	
CGACATGTCCCGCTTCTTTCATTAATCCGTTATCAACTGTTTTGCTATATAGATTTACCTTTTAAGAGGAGGAAT	0.418			
ACAGACGAAGGAGCCGCAATGAAGTTATTAAGGGATGAATAATCCCTCAAAATAAATATCTCTCACTTATTTAAA		0.355		
CGACATGTCCCGCTTCTTTCATTAATGAGTTAGCAACTGTTTTGCTATATACATTTACCTTTTAAGAGGAGGAAT	1.18			
ACAGACGAAGGAGCCGCAACGAAGTTATTAAGGGATGAATAATCCCTCAATGTAAATATCTCTCACTTATTTAAA		0.11		
ACAGACGAAGGAGCCGCAAATAACTTATTAAGGGATGAATAATCCCTCAATATAAATATCTCTCACTTATTTAAA		0.465	0.465	cleaved RNA product abundance (experiment (reporter, strain, medium): exp 6: tetM reporter, strain 168, cleavage site: cggR-gapA (positions -7 to +36 mutated)): 0.719
ACAGACGAAGGAGCCGCAAAGAAGTAATTAAGGGATGAATAATCTCTCAATATAAATATCTCTCACTTATTTAAA		0.244	0.213	
ACAGACGAAGGAGCCGCAAAGAAGTTATTAAGAGATGAATAATCCCTCAATCTAAATATCTCTCACTTATTTAAA		0.0377		
ACAGACGAAGGAGCCGCAAAGAAGTTATTAAGGGATGACTATTCCCTCAATATAAATATCTCTCACTTATTTAAA		0.804		
ACAGACGAAGGAGCCGCAAAGAAGTTATTAAGGGATGAATAATCACTGAATATAAATATCTCTCACTTATTTAAA		0.0697	0.0838	
